Reference: patent US20250152742A1, “COMPOSITIONS AND METHODS FOR NEUROLOGICAL DISEASES” (Trames Bio, Inc., priority 2022, published 2025)

Test system: engineered chimeric receptor SEQ ID NO: 33 and its mutants (human α7-nAChR ligand binding domain / human GlyRα1 ion pore domain) in Lenti-X 293T cells
Test: YFP fluorescence quenching anion reporter plate reader assay (percent quench, EC50)
Format: cell-based
Details: for YFP fluorescence quenching using CNL001 (percent quench): receptor named in row; for YFP fluorescence quenching using Facinicline, 30 nM fac: ligand Facinicline 30 nM; for YFP fluorescence quenching using Facinicline, 300 nM fac: ligand Facinicline 300 nM; for YFP fluorescence quenching using Facinicline, 30 uM fac: ligand Facinicline 30 uM; for YFP fluorescence quenching using TC-6987, 1 uM tc6987: ligand TC-6987 1 uM; for YFP fluorescence quenching using TC-6987, 10 uM tc6987: ligand TC-6987 10 uM; for YFP fluorescence quenching using TC-6987, 500 uM tc6987: ligand TC-6987 500 uM; for YFP fluorescence quenching using Varenicline, 3 nM var: ligand Varenicline 3 nM; for YFP fluorescence quenching using Varenicline, 30 nM var: ligand Varenicline 30 nM; for YFP fluorescence quenching using Varenicline, 300 nM var: ligand Varenicline 300 nM; for YFP fluorescence quenching using Varenicline, 500 nM var: ligand Varenicline 500 nM; for YFP fluorescence quenching using Varenicline, 1 uM var: ligand Varenicline 1 uM
Text: To screen these mutant LGICs for those having novel response profiles to ligands, an anion reporter assay was developed to assess the function of the LGICs in a high throughput format. In this assay, cells expressing a YFP reporter whose fluorescence is quenched in the presence of anion are transfected with DNA encoding the channel of interest. Upon exposure to ligand, channels that are activated will flux anion, resulting in a dose-dependent quench of the YFP that can be detected on a plate reader. The greater the quench signal (i.e., the more positive the value), the higher the ligand activity on the receptor is.
Lenti-X 293T cells (LX293T, Clontech) were maintained in DMEM containing 10% FBS and 1% penicillin/streptomycin (Invitrogen). […] Two days before assay, cells were split at a density of 20,000 cells/well in a 96-well tissue culture plate coated with poly-d lysine (Thermo Scientific). The next day, the cells were transiently transfected with 0.1 μg of DNA per well using standard Fugene protocol (Promega). On the day of assay, cells were washed 2 times in 1X extracellular solution (1X ECS: 140 mM NaCl, 5 mM KCl, 1 mM MgCl2, 2 mM CaCl2, 10 mM HEPES, 10 mM glucose, pH 7.2, mOsms 300). After the last wash, 100 μL of 1X ECS was added to the wells and the plate was incubated at 37° C. for 30 min. While incubating the plate, the drugs were diluted to a 2X concentration in 1X ECS-Nal (same components as 1X ECS except the 140 mM NaCl was replaced by 140 mM Nal). The plates were then read on a Flexstation3 (Molecular Devices). Each well, 8 wells at a time, of the plate is read for 2 min using a Flexstation3 (Molecular Devices) as follows: 1) a baseline YFP fluorescence is read for 17 sec, 2) 100 μL of ligand is added, and 3) the changes in YFP fluorescence are then measured every 1.3 sec for 1 minute and 43 seconds. The percent quench is calculated from the average fluorescence of the last 10 seconds of the read divided by the baseline average of the first 15 seconds prior to the ligand addition.
FIGS. 1A-1J provide heat maps of the percent quench of YFP fluorescence following stimulation by various doses of either acetylcholine or the non-native ligand as indicated in the Figures. CODA71 (SEQ ID NO: 33) was used as a control, and CODA75 (SEQ ID NO: 29, a non-responding chimeric engineered receptor) was used as the negative control. Quenching of the fluorescence signal, as indicated by blue shaded cells, indicate the level of engineered receptor activation by the non-native ligand at that concentration.

[1] = 1 nM CNL001, first column so headed
[2] = 1 nM CNL001, second column so headed
[3] = 3 nM brd (TC-5619/Bradanicline)
[4] = 10 nM CNL001, first column so headed
[5] = 10 nM CNL001, second column so headed
[6] = 30 nM brd (TC-5619/Bradanicline)
[7] = 50 nM CNL001, first column so headed
[8] = 50 nM CNL001, second column so headed
[9] = 100 nM CNL001, first column so headed
[10] = 100 nM CNL001, second column so headed
[11] = 300 nM brd (TC-5619/Bradanicline)
[12] = 1 uM CNL001, first column so headed
[13] = 1 uM CNL001, second column so headed

B1: CODA325: engineered receptor: L131G in SEQ ID NO: 33 (protein)
chain: MRCSPGGVWLALAASLLHVSLQGEFQRKLYKELVKNYNPLERPVANDSQPLTVYFSLSLLQIMDVDEKNQVLTTNIWLQMSWTDHYLQWNVSEYPGVKTVRFPDGQIWKPDILLYNSADERFDATFHTNVGVNSSGHCQYLPPGIFKSSCPMDLKNFPMDVQTCKLKFGSWSYGGWSLDLQMQEADISGYIPNGEWDLVGIPGKRSERFYECCKEPYPDVTFTVTMRRRMGYYLIQMYIPSLLIVILSWISFWINMDAAPARVGLGITTVLTMTTQSSGSRASLPKVSYVKAIDIWMAVCLLFVFSALLEYAAVNFVSRQHKELLRFRRKRRHHKSPMLNLFQEDEAGEGRFNFSAYGMGPACLQAKDGISVKGANNSNTTNPPPAPSKSPEEMRKLFIQRAKKIDKISRIGFPMAFLIFNMFYWIIYKIVRREDVHNQ
modifications: synthetic sequence of chimeric LGIC
- YFP fluorescence quenching using CNL001 (percent quench) [1]: 74.429%
- YFP fluorescence quenching using CNL001 (percent quench) [2]: 78.715%
- YFP fluorescence quenching using TC-5619/Bradanicline (percent quench) [3]: 68.45%
- YFP fluorescence quenching using CNL001 (percent quench) [4]: 79.033%
- YFP fluorescence quenching using CNL001 (percent quench) [5]: 79.322%
- YFP fluorescence quenching using TC-6683 (percent quench) (30 nM TC-6683): −21.27%
- YFP fluorescence quenching using TC-5619/Bradanicline (percent quench) [6]: 76.95%
- YFP fluorescence quenching using CNL001 (percent quench) [7]: 79.966%
- YFP fluorescence quenching using CNL001 (percent quench) [8]: 80.091%
- YFP fluorescence quenching using ABT-126 (percent quench) (50 nM abt (ABT-126)): −17.39%
- YFP fluorescence quenching using CNL001 (percent quench) [9]: 81%
- YFP fluorescence quenching using CNL001 (percent quench) [10]: 79.701%
- YFP fluorescence quenching (percent quench) (100 nM CNL002): 45.62%
- YFP fluorescence quenching using ABT-126 (percent quench) (100 nM abt (ABT-126)): 6.89%
- YFP fluorescence quenching using AZD-0328 (percent quench) (100 nM azd0328): 79.75%
- YFP fluorescence quenching using TC-6683 (percent quench) (300 nM TC-6683): −18.33%
- YFP fluorescence quenching using ABT-126 (percent quench) (300 nM abt (ABT-126)): 38.65%
- YFP fluorescence quenching using AZD-0328 (percent quench) (300 nM azd0328): 80.62%
- YFP fluorescence quenching using TC-5619/Bradanicline (percent quench) [11]: 77.1%
- YFP fluorescence quenching using CNL001 (percent quench) [12]: 79.289%
- YFP fluorescence quenching using CNL001 (percent quench) [13]: 80.581%
- YFP fluorescence quenching (percent quench) (1 uM CNL002): 74.72%
- YFP fluorescence quenching using ABT-126 (percent quench) (1 uM abt (ABT-126)): 45.82%
- YFP fluorescence quenching using TC-6683 (percent quench) (3 uM TC-6683): −7.03%
- YFP fluorescence quenching (percent quench) (10 uM ach (acetylcholine)): 5.66%
- YFP fluorescence quenching (percent quench) (30 uM CNL002): 77.4%
- YFP fluorescence quenching using TC-6683 (percent quench) (30 uM TC-6683): 56.84%
- YFP fluorescence quenching using AZD-0328 (percent quench) (30 uM azd0328): 80.19%
- YFP fluorescence quenching using TC-6683 (percent quench) (100 uM TC-6683): 64.51%
- YFP fluorescence quenching (percent quench) (100 uM ach (acetylcholine)): 74.07%
- YFP fluorescence quenching (percent quench) (1 mM ach (acetylcholine)): 62.65%
- YFP fluorescence quenching (percent quench) (3 mM ach (acetylcholine)): 69.49%
- YFP fluorescence quenching using Facinicline, 30 nM fac: 75.75
- YFP fluorescence quenching using Facinicline, 300 nM fac: 78.01
- YFP fluorescence quenching using Facinicline, 30 uM fac: 76.61
- YFP fluorescence quenching using TC-6987, 1 uM tc6987: 64.59
- YFP fluorescence quenching using TC-6987, 10 uM tc6987: 76.28
- YFP fluorescence quenching using TC-6987, 500 uM tc6987: 70.95
- YFP fluorescence quenching using Varenicline, 3 nM var (first column): −12.241
- YFP fluorescence quenching using Varenicline, 3 nM var (second column): −9.415
- YFP fluorescence quenching using Varenicline, 30 nM var (first column): 75.334
- YFP fluorescence quenching using Varenicline, 30 nM var (second column): 72.278
- YFP fluorescence quenching using Varenicline, 300 nM var (first column): 78.305
- YFP fluorescence quenching using Varenicline, 300 nM var (second column): 77.83
- YFP fluorescence quenching using Varenicline, 500 nM var (first column): 75.936
- YFP fluorescence quenching using Varenicline, 500 nM var (second column): 76.788
- YFP fluorescence quenching using Varenicline, 1 uM var (first column): 77.805
- YFP fluorescence quenching using Varenicline, 1 uM var (second column): 77.352

B2: CODA326: engineered receptor: L131A in SEQ ID NO: 33 (protein)
chain: MRCSPGGVWLALAASLLHVSLQGEFQRKLYKELVKNYNPLERPVANDSQPLTVYFSLSLLQIMDVDEKNQVLTTNIWLQMSWTDHYLQWNVSEYPGVKTVRFPDGQIWKPDILLYNSADERFDATFHTNVAVNSSGHCQYLPPGIFKSSCPMDLKNFPMDVQTCKLKFGSWSYGGWSLDLQMQEADISGYIPNGEWDLVGIPGKRSERFYECCKEPYPDVTFTVTMRRRMGYYLIQMYIPSLLIVILSWISFWINMDAAPARVGLGITTVLTMTTQSSGSRASLPKVSYVKAIDIWMAVCLLFVFSALLEYAAVNFVSRQHKELLRFRRKRRHHKSPMLNLFQEDEAGEGRFNFSAYGMGPACLQAKDGISVKGANNSNTTNPPPAPSKSPEEMRKLFIQRAKKIDKISRIGFPMAFLIFNMFYWIIYKIVRREDVHNQ
modifications: synthetic sequence of chimeric LGIC
- YFP fluorescence quenching using CNL001 (percent quench) [1]: 76.424%
- YFP fluorescence quenching using CNL001 (percent quench) [2]: 80.567%
- YFP fluorescence quenching using TC-5619/Bradanicline (percent quench) [3]: 72.24%
- YFP fluorescence quenching using CNL001 (percent quench) [4]: 80.284%
- YFP fluorescence quenching using CNL001 (percent quench) [5]: 81.232%
- YFP fluorescence quenching using TC-6683 (percent quench) (30 nM TC-6683): −16.28%
- YFP fluorescence quenching using TC-5619/Bradanicline (percent quench) [6]: 77.4%
- YFP fluorescence quenching using CNL001 (percent quench) [7]: 81.575%
- YFP fluorescence quenching using CNL001 (percent quench) [8]: 82.544%
- YFP fluorescence quenching using ABT-126 (percent quench) (50 nM abt (ABT-126)): −21.91%
- YFP fluorescence quenching using CNL001 (percent quench) [9]: 81%
- YFP fluorescence quenching using CNL001 (percent quench) [10]: 81.718%
- YFP fluorescence quenching (percent quench) (100 nM CNL002): 27.88%
- YFP fluorescence quenching using ABT-126 (percent quench) (100 nM abt (ABT-126)): −0.5%
- YFP fluorescence quenching using AZD-0328 (percent quench) (100 nM azd0328): 80.39%
- YFP fluorescence quenching using TC-6683 (percent quench) (300 nM TC-6683): −11.73%
- YFP fluorescence quenching using ABT-126 (percent quench) (300 nM abt (ABT-126)): 34.86%
- YFP fluorescence quenching using AZD-0328 (percent quench) (300 nM azd0328): 82.07%
- YFP fluorescence quenching using TC-5619/Bradanicline (percent quench) [11]: 78.02%
- YFP fluorescence quenching using CNL001 (percent quench) [12]: 82.334%
- YFP fluorescence quenching using CNL001 (percent quench) [13]: 81.539%
- YFP fluorescence quenching (percent quench) (1 uM CNL002): 73.79%
- YFP fluorescence quenching using ABT-126 (percent quench) (1 uM abt (ABT-126)): 56.66%
- YFP fluorescence quenching using TC-6683 (percent quench) (3 uM TC-6683): −2.38%
- YFP fluorescence quenching (percent quench) (10 uM ach (acetylcholine)): 7.43%
- YFP fluorescence quenching (percent quench) (30 uM CNL002): 75.89%
- YFP fluorescence quenching using TC-6683 (percent quench) (30 uM TC-6683): −9.77%
- YFP fluorescence quenching using AZD-0328 (percent quench) (30 uM azd0328): 82.23%
- YFP fluorescence quenching using TC-6683 (percent quench) (100 uM TC-6683): 0.97%
- YFP fluorescence quenching (percent quench) (100 uM ach (acetylcholine)): 73.57%
- YFP fluorescence quenching (percent quench) (1 mM ach (acetylcholine)): 71.8%
- YFP fluorescence quenching (percent quench) (3 mM ach (acetylcholine)): 74.49%
- YFP fluorescence quenching using Facinicline, 30 nM fac: 69.94
- YFP fluorescence quenching using Facinicline, 300 nM fac: 80.07
- YFP fluorescence quenching using Facinicline, 30 uM fac: 78.32
- YFP fluorescence quenching using TC-6987, 1 uM tc6987: 73.37
- YFP fluorescence quenching using TC-6987, 10 uM tc6987: 78.18
- YFP fluorescence quenching using TC-6987, 500 uM tc6987: 75.42
- YFP fluorescence quenching using Varenicline, 3 nM var (first column): −5.939
- YFP fluorescence quenching using Varenicline, 3 nM var (second column): −2.294
- YFP fluorescence quenching using Varenicline, 30 nM var (first column): 68.663
- YFP fluorescence quenching using Varenicline, 30 nM var (second column): 70.718
- YFP fluorescence quenching using Varenicline, 300 nM var (first column): 79.88
- YFP fluorescence quenching using Varenicline, 300 nM var (second column): 79.742
- YFP fluorescence quenching using Varenicline, 500 nM var (first column): 79.311
- YFP fluorescence quenching using Varenicline, 500 nM var (second column): 80.029
- YFP fluorescence quenching using Varenicline, 1 uM var (first column): 80.952
- YFP fluorescence quenching using Varenicline, 1 uM var (second column): 79.329
